According to the supplement of paper PMC12764529:
± gives the half width of the 95% confidence interval.

Tests used:
[1] = folding stability dG unfold from trypsin proteolysis; higher = more stable
Summary of the method: (§1)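 K50 was inferred by Bayesian fitting of sequencing counts obtained after protease digestion of designed mini-proteins. Unfolding free energy was derived by comparison with a sequence-predicted unfolded-state K50 and a shared folded-state K50, for each protease or both combined. The mini-proteins were under 80 residues, had no cysteine, were carried in a PA-tagged cDNA display construct, and were kept only if AlphaFold2 dimer inter-PAE exceeded 15.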

[2] = folding stability dG unfold from chymotrypsin proteolysis; higher = more stable
Summary of the method: as §1

[3] = folding stability dG unfold (combined trypsin and chymotrypsin); higher = more stable
Summary of the method: as §1

| Sequence | folding stability dG unfold [1] [kcal/mol] | folding stability dG unfold [2] [kcal/mol] | folding stability dG unfold [3] [kcal/mol] |
| --- | --- | --- | --- |
| SAGGPKWYYITIKIPDDPKKAERLVDRLQDLFGEDVRINVNPGNNHVTVWIPNDLRPLLKDHGLEITPSAGG [r13_156_TrROS] | 2.94 ± 0.086 | 2.95 ± 0.02 | 2.93 ± 0.047 |
| SAGGPMKPFLKNFSGPEEAIAFVNKLREELKGPVGLTLIFPDGSVIEVVDPQKLESIDNFEVIVTVSESAGG [r13_620_JUSTAS] | 1.39 ± 0.039 | 1.8 ± 0.085 | 1.69 ± 0.096 |
| SAGGPMKVKVTLIVRDKETGEWKEVEREMTLDELRELLASLPPDAEVFVKIEVDGKTVTLSLEELKALSAGG [r13_254_TrROS_Hall] | 3.84 ± 0.17 | 4.32 ± 0.097 | 4.29 ± 0.12 |
| SAGGPNFTIKIEIEEIPNGVRVHKMTMELPDGHAWLMVMLYSPDPGKMFMIMVPVDPNGGIEDINIMPSAGG [r13_323_TrROS] | 2.52 ± 0.077 | 4.12 ± 0.074 | 3.92 ± 0.19 |
| SAGGPNLYIFIKIEHKGQTVTFMYPVPPGNLEKLVDEIASMGFPEIKIEEIYIFPPNGWIPVTVRLPSAGGS [r8_219_TrROS] | 2.88 ± 0.13 | 3.71 ± 0.041 | 3.4 ± 0.14 |
| SAGGPPGWKPVEMKITVMFDDPEEAAEKIKEEVRSHFPNIEITKVEVQRNPENNMYMVTVDIRMWVPSAGGS [r8_120_TrROS] | 3.08 ± 0.18 | 3.37 ± 0.081 | 3.37 ± 0.11 |
| SAGGPPIKKIEITKIHPGKGIIQVSIKLPGDGHPIMVRAEIDDPEPGKIKIEIQDPNNGQPQEITIKFSAGG [r13_337_TrROS] | 1.23 ± 0.094 | 0.683 ± 0.08 | 1.1 ± 0.28 |
| SAGGPPRPVRIDIDPDAGSIEIMFPNGWPYEIPIPPDSIDEITLDPNDHVIEIKMPGKEIKFDIEPVSAGGS [r16_104_TrROS] | -0.376 ± 0.12 | 0.757 ± 0.029 | 0.443 ± 0.11 |
| SAGGPPVAEIRVTEEDPETGVVRMEATLPEAPRPVRATGTRLDPGGGTVLVTVTDPDGGPDTTTTLAASAGG [r13_337_JUSTAS] | -0.308 ± 0.1 | 0.221 ± 0.12 | 0.0684 ± 0.12 |
| SAGGPPVIRFPTAEIPASGTIEDIVAAIERATGEPLPEELVEQILNGKTIEEIIELLKKRGYPVEYLSAGGS [r16_601_JUSTAS] | 3.84 ± 0.14 | 3.11 ± 0.074 | 3.33 ± 0.088 |
| SAGGPRVEVEEVELEGDYLVVRARVEVPLDDGTYEFELTLVLPVPPPPLPLPPVDPRFPRAPDDDLVSAGGS [r8_234_TrMRF] | 0.584 ± 0.073 | 1.33 ± 0.073 | 0.971 ± 0.13 |
| SAGGPVFEVTPEVDPDTDLVTYTVRVPADVDFAAVAKALETEFADGSRAEVKPLPDGTVVVVVRLPASAGGS [r8_255_TrMRF] | 1.25 ± 0.023 | 0.307 ± 0.12 | 0.942 ± 0.059 |
| SAGGPVLRLSFPTRTPDGELVRVEVVYDPETGALLVRVYSLTRPNRAVLYLVDPENPLTVLRAEELPLSAGG [r13_400_TrMRF] | 2.47 ± 0.11 | 3.01 ± 0.071 | 2.82 ± 0.18 |
| SAGGPVVTTTTEYDPSTGKTYTVTTVPGSATQTTTYTLPDGTVLTTTTTVSPTTGGVTSTTPTTTPVPASAG [r5_587_JUSTAS] | 1.3 ± 0.046 | 1.31 ± 0.089 | 1.39 ± 0.061 |
| SAGGPWHEQKHEITDPDDGKPIKISHTHYPDGYPRVRIELNNGKKIEFMVPPNGPPTPDQLLDAIKQFSAGG [r13_492_TrROS] | 0.317 ± 0.092 | 0.452 ± 0.16 | 0.478 ± 0.11 |
| SAGGPWRFEIDDIQPPEDGKVQIRIKLYNDDGEPIQELSIPMKGVDDVKITIPIGNQPIKIPITVVPASAGG [r13_427_TrROS] | -0.13 ± 0.27 | 0.614 ± 0.22 | 0.361 ± 0.19 |
| SAGGPYMEIQFPMPEDQVRPALEKAADEWGMEVKEINYHPNNGMVTITVNDNMPPNRIRKAIEKVLKSAGGS [r8_338_TrROS] | -0.784 ± 0.4 | 0.0859 ± 0.09 | -0.181 ± 0.15 |
| SAGGREITIMIWMPLEDMEEFANEIANALAAEGYKVKDIEIQFKVIPDPENGRPWVMFMIEVEIEPPSAGGS [r8_475_TrROS] | 2.96 ± 0.19 | 4.717 ± 0.044 | 4.27 ± 0.1 |
| SAGGRFYFEAKDPSITPEELRAALEEAFGVKFHRIKPVEPLPDGMLYEVEIPEIGGHFDVSAEEIEKLLSAG [r5_550_TrMRF] | 1.27 ± 0.053 | 1.78 ± 0.077 | 1.56 ± 0.16 |
| SAGGRGVGRPGSRLLLVAEADLEPDEVSVEELAERIREAFPDVRVVDLRVEVGGEKARLFALVELDVSAGGS [r8_202_TrMRF] | 0.917 ± 0.077 | 1.64 ± 0.067 | 1.41 ± 0.092 |
| SAGGRIHIPIPLNQAREILKKLAPDGRDVTAEPQGPSKDNVYYTIEFEPPKNGNEVDIEIWIPPPGDSAGGS [r16_486_TrROS] | -0.000485 ± 0.1 | -0.234 ± 0.36 | 0.0968 ± 0.18 |
